{
  "source": "patent US20260242735A1",
  "about": "(UNIVERSIT T BASEL, published 2026)",
  "key": {"human CD33 variant R122G": {"target": "human CD33 variant R122G (human, UniProt P20138 18-364)", "sequence (P20138 18-364 R122G limits assumed)": "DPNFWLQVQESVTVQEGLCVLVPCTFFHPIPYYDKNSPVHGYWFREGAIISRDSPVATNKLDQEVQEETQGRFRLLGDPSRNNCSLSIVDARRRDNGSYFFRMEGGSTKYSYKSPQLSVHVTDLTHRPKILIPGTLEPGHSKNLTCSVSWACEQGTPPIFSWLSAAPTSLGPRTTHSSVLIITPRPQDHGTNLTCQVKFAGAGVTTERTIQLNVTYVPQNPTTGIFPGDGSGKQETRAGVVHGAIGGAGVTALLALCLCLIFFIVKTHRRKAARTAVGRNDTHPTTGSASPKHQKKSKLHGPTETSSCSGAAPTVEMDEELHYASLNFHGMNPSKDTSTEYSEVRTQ", "assay": "flow cytometry, IgG on cells expressing the mutant", "experimental": "(§1) An alanine scan on human CD33 was performed to the determine the residues on CD33 that are involved in binding to the antibodies investigated. […] Briefly, a mutation library of CD33 was created by high-throughput, site-directed mutagenesis. Each residue was individually mutated to alanine, with alanine codons mutated to serine. The mutant library was arrayed in 384-well microplates and transiently transfected into HEK293-T. Following transfection, cells were incubated with the indicated antibodies (IgG or Fab) at concentrations pre-determined using an independent immunofluorescence titration curve on wild type CD33. […] Binding of each antibody to each mutant clone was determined in duplicates. For each point, background fluorescence was subtracted from the raw data, which were then normalized to antibody reactivity with wild type CD33.\n(§2) Antibodies were screened for binding to the human CD33 variants in IgG format. […] For each mutation, background fluorescence was subtracted from the raw data, which were then normalized to antibody reactivity with wild-type CD33."}, "human CD33 variant R122T": {"target": "human CD33 variant R122T (human, UniProt P20138 18-364)", "sequence (P20138 18-364 R122T limits assumed)": "as the sequence (P20138 18-364 R122G limits assumed) above, with G105T counted along it", "assay": "flow cytometry, IgG on cells expressing the mutant", "experimental": "as §1, §2"}, "human CD33 variant M120L": {"target": "human CD33 variant M120L (human, UniProt P20138 18-364)", "sequence (P20138 18-364 M120L limits assumed)": "as the sequence (P20138 18-364 R122G limits assumed) above, with M103L, G105R counted along it", "assay": "flow cytometry, IgG on cells expressing the mutant", "experimental": "as §1, §2"}, "human CD33 variant S131G": {"target": "human CD33 variant S131G (human, UniProt P20138 18-364)", "sequence (P20138 18-364 S131G limits assumed)": "as the sequence (P20138 18-364 R122G limits assumed) above, with G105R, S114G counted along it", "assay": "flow cytometry, IgG on cells expressing the mutant", "experimental": "as §1, §2"}, "human CD33 variant Y49S": {"target": "human CD33 variant Y49S (human, UniProt P20138 18-364)", "sequence (P20138 18-364 Y49S limits assumed)": "as the sequence (P20138 18-364 R122G limits assumed) above, with Y32S, G105R counted along it", "assay": "flow cytometry, IgG on cells expressing the mutant", "experimental": "as §1, §2"}, "human CD33 variant K52H": {"target": "human CD33 variant K52H (human, UniProt P20138 18-364)", "sequence (P20138 18-364 K52H limits assumed)": "as the sequence (P20138 18-364 R122G limits assumed) above, with K35H, G105R counted along it", "assay": "flow cytometry, IgG on cells expressing the mutant", "experimental": "as §1, §2"}, "human CD33 variant R122E": {"target": "human CD33 variant R122E (human, UniProt P20138 18-364)", "sequence (P20138 18-364 R122E limits assumed)": "as the sequence (P20138 18-364 R122G limits assumed) above, with G105E counted along it", "assay": "flow cytometry, IgG on cells expressing the mutant", "experimental": "as §1, §2"}, "human CD33 variant P48M": {"target": "human CD33 variant P48M (human, UniProt P20138 18-364)", "sequence (P20138 18-364 P48M limits assumed)": "as the sequence (P20138 18-364 R122G limits assumed) above, with P31M, G105R counted along it", "assay": "flow cytometry, IgG on cells expressing the mutant", "experimental": "as §1, §2"}, "human CD33 variant P48N": {"target": "human CD33 variant P48N (human, UniProt P20138 18-364)", "sequence (P20138 18-364 P48N limits assumed)": "as the sequence (P20138 18-364 R122G limits assumed) above, with P31N, G105R counted along it", "assay": "flow cytometry, IgG on cells expressing the mutant", "experimental": "as §1, §2"}, "human CD33 variant P48K": {"target": "human CD33 variant P48K (human, UniProt P20138 18-364)", "sequence (P20138 18-364 P48K limits assumed)": "as the sequence (P20138 18-364 R122G limits assumed) above, with P31K, G105R counted along it", "assay": "flow cytometry, IgG on cells expressing the mutant", "experimental": "as §1, §2"}, "human CD33 variant P48T": {"target": "human CD33 variant P48T (human, UniProt P20138 18-364)", "sequence (P20138 18-364 P48T limits assumed)": "as the sequence (P20138 18-364 R122G limits assumed) above, with P31T, G105R counted along it", "assay": "flow cytometry, IgG on cells expressing the mutant", "experimental": "as §1, §2"}, "human CD33 variant I47P": {"target": "human CD33 variant I47P (human, UniProt P20138 18-364)", "sequence (P20138 18-364 I47P limits assumed)": "as the sequence (P20138 18-364 R122G limits assumed) above, with I30P, G105R counted along it", "assay": "flow cytometry, IgG on cells expressing the mutant", "experimental": "as §1, §2"}, "human CD33 variant P48V": {"target": "human CD33 variant P48V (human, UniProt P20138 18-364)", "sequence (P20138 18-364 P48V limits assumed)": "as the sequence (P20138 18-364 R122G limits assumed) above, with P31V, G105R counted along it", "assay": "flow cytometry, IgG on cells expressing the mutant", "experimental": "as §1, §2"}, "human CD33 variant Y50R": {"target": "human CD33 variant Y50R (human, UniProt P20138 18-364)", "sequence (P20138 18-364 Y50R limits assumed)": "as the sequence (P20138 18-364 R122G limits assumed) above, with Y33R, G105R counted along it", "assay": "flow cytometry, IgG on cells expressing the mutant", "experimental": "as §1, §2"}, "human CD33 variant M120V": {"target": "human CD33 variant M120V (human, UniProt P20138 18-364)", "sequence (P20138 18-364 M120V limits assumed)": "as the sequence (P20138 18-364 R122G limits assumed) above, with M103V, G105R counted along it", "assay": "flow cytometry, IgG on cells expressing the mutant", "experimental": "as §1, §2"}, "human CD33 variant Y50P": {"target": "human CD33 variant Y50P (human, UniProt P20138 18-364)", "sequence (P20138 18-364 Y50P limits assumed)": "as the sequence (P20138 18-364 R122G limits assumed) above, with Y33P, G105R counted along it", "assay": "flow cytometry, IgG on cells expressing the mutant", "experimental": "as §1, §2"}, "human CD33 variant P48W": {"target": "human CD33 variant P48W (human, UniProt P20138 18-364)", "sequence (P20138 18-364 P48W limits assumed)": "as the sequence (P20138 18-364 R122G limits assumed) above, with P31W, G105R counted along it", "assay": "flow cytometry, IgG on cells expressing the mutant", "experimental": "as §1, §2"}, "human CD33 variant K52S": {"target": "human CD33 variant K52S (human, UniProt P20138 18-364)", "sequence (P20138 18-364 K52S limits assumed)": "as the sequence (P20138 18-364 R122G limits assumed) above, with K35S, G105R counted along it", "assay": "flow cytometry, IgG on cells expressing the mutant", "experimental": "as §1, §2"}, "human CD33 variant Y127R": {"target": "human CD33 variant Y127R (human, UniProt P20138 18-364)", "sequence (P20138 18-364 Y127R limits assumed)": "as the sequence (P20138 18-364 R122G limits assumed) above, with G105R, Y110R counted along it", "assay": "flow cytometry, IgG on cells expressing the mutant", "experimental": "as §1, §2"}, "human CD33 variant I47Y": {"target": "human CD33 variant I47Y (human, UniProt P20138 18-364)", "sequence (P20138 18-364 I47Y limits assumed)": "as the sequence (P20138 18-364 R122G limits assumed) above, with I30Y, G105R counted along it", "assay": "flow cytometry, IgG on cells expressing the mutant", "experimental": "as §1, §2"}, "human CD33 variant K52I": {"target": "human CD33 variant K52I (human, UniProt P20138 18-364)", "sequence (P20138 18-364 K52I limits assumed)": "as the sequence (P20138 18-364 R122G limits assumed) above, with K35I, G105R counted along it", "assay": "flow cytometry, IgG on cells expressing the mutant", "experimental": "as §1, §2"}, "human CD33 variant I47L": {"target": "human CD33 variant I47L (human, UniProt P20138 18-364)", "sequence (P20138 18-364 I47L limits assumed)": "as the sequence (P20138 18-364 R122G limits assumed) above, with I30L, G105R counted along it", "assay": "flow cytometry, IgG on cells expressing the mutant", "experimental": "as §1, §2"}, "human CD33 variant K52Y": {"target": "human CD33 variant K52Y (human, UniProt P20138 18-364)", "sequence (P20138 18-364 K52Y limits assumed)": "as the sequence (P20138 18-364 R122G limits assumed) above, with K35Y, G105R counted along it", "assay": "flow cytometry, IgG on cells expressing the mutant", "experimental": "as §1, §2"}, "human CD33 variant R122S": {"target": "human CD33 variant R122S (human, UniProt P20138 18-364)", "sequence (P20138 18-364 R122S limits assumed)": "as the sequence (P20138 18-364 R122G limits assumed) above, with G105S counted along it", "assay": "flow cytometry, IgG on cells expressing the mutant", "experimental": "as §1, §2"}, "human CD33 variant K52D": {"target": "human CD33 variant K52D (human, UniProt P20138 18-364)", "sequence (P20138 18-364 K52D limits assumed)": "as the sequence (P20138 18-364 R122G limits assumed) above, with K35D, G105R counted along it", "assay": "flow cytometry, IgG on cells expressing the mutant", "experimental": "as §1, §2"}, "human CD33 variant K52F": {"target": "human CD33 variant K52F (human, UniProt P20138 18-364)", "sequence (P20138 18-364 K52F limits assumed)": "as the sequence (P20138 18-364 R122G limits assumed) above, with K35F, G105R counted along it", "assay": "flow cytometry, IgG on cells expressing the mutant", "experimental": "as §1, §2"}, "human CD33 W22R": {"target": "human CD33 W22R (human, UniProt P20138 18-364)", "sequence (P20138 18-364 W22R limits assumed)": "as the sequence (P20138 18-364 R122G limits assumed) above, with W5R, G105R counted along it", "assay": "flow cytometry, transfected cells"}, "human CD33 W22E": {"target": "human CD33 W22E (human, UniProt P20138 18-364)", "sequence (P20138 18-364 W22E limits assumed)": "as the sequence (P20138 18-364 R122G limits assumed) above, with W5E, G105R counted along it", "assay": "flow cytometry, transfected cells"}, "human CD33 W22T": {"target": "human CD33 W22T (human, UniProt P20138 18-364)", "sequence (P20138 18-364 W22T limits assumed)": "as the sequence (P20138 18-364 R122G limits assumed) above, with W5T, G105R counted along it", "assay": "flow cytometry, transfected cells"}, "human CD33 W22P": {"target": "human CD33 W22P (human, UniProt P20138 18-364)", "sequence (P20138 18-364 W22P limits assumed)": "as the sequence (P20138 18-364 R122G limits assumed) above, with W5P, G105R counted along it", "assay": "flow cytometry, transfected cells"}},
  "data": [
    {"binder": "Refmab #3 (antibody, human IgG1, V domains shown, Tested in IgG format; human IgG1 Fc silent (PG-LALA)) VH: QVQLVQSGAEVKKPGSSVKVSCKASGYTFTDYNMHWVRQAPGQGLEWIGYIYPYNGGTGYNQKFKSKATITADESTNTAYMELSSLRSEDTAVYYCARGRPAMDYWGQGTLVTVSS VL: DIQMTQSPSSLSASVGDRVTITCRASESVDNYGISFMNWFQQKPGKAPKLLIYAASNQGSGVPSRFSGSGSGTDFTLTISSLQPDDFATYYCQQSKEVPWTFGQGTKVEIK", "values": [
      {"measurement": "Mean % WT Binding", "setting": "human CD33 variant R122G", "result": "114 % of WT"},
      {"measurement": "Mean % WT Binding", "setting": "human CD33 variant R122T", "result": "103 % of WT"},
      {"measurement": "Mean % WT Binding", "setting": "human CD33 variant M120L", "result": "90.8 % of WT"},
      {"measurement": "Mean % WT Binding", "setting": "human CD33 variant S131G", "result": "100 % of WT"},
      {"measurement": "Mean % WT Binding", "setting": "human CD33 variant Y49S", "result": "107 % of WT"},
      {"measurement": "Mean % WT Binding", "setting": "human CD33 variant K52H", "result": "101 % of WT"},
      {"measurement": "Mean % WT Binding", "setting": "human CD33 variant R122E", "result": "101 % of WT"},
      {"measurement": "Mean % WT Binding", "setting": "human CD33 variant P48M", "result": "106 % of WT"},
      {"measurement": "Mean % WT Binding", "setting": "human CD33 variant P48N", "result": "98.8 % of WT"},
      {"measurement": "Mean % WT Binding", "setting": "human CD33 variant P48K", "result": "67.3 % of WT"},
      {"measurement": "Mean % WT Binding", "setting": "human CD33 variant P48T", "result": "102 % of WT"},
      {"measurement": "Mean % WT Binding", "setting": "human CD33 variant I47P", "result": "2.8 % of WT"},
      {"measurement": "Mean % WT Binding", "setting": "human CD33 variant P48V", "result": "113 % of WT"},
      {"measurement": "Mean % WT Binding", "setting": "human CD33 variant Y50R", "result": "83 % of WT"},
      {"measurement": "Mean % WT Binding", "setting": "human CD33 variant M120V", "result": "51.1 % of WT"},
      {"measurement": "Mean % WT Binding", "setting": "human CD33 variant Y50P", "result": "103 % of WT"},
      {"measurement": "Mean % WT Binding", "setting": "human CD33 variant P48W", "result": "96.4 % of WT"},
      {"measurement": "Mean % WT Binding", "setting": "human CD33 variant K52S", "result": "96.8 % of WT"},
      {"measurement": "Mean % WT Binding", "setting": "human CD33 variant Y127R", "result": "65.9 % of WT"},
      {"measurement": "Mean % WT Binding", "setting": "human CD33 variant I47Y", "result": "109 % of WT"},
      {"measurement": "Mean % WT Binding", "setting": "human CD33 variant K52I", "result": "88.7 % of WT"},
      {"measurement": "Mean % WT Binding", "setting": "human CD33 variant I47L", "result": "102 % of WT"},
      {"measurement": "Mean % WT Binding", "setting": "human CD33 variant K52Y", "result": "41.7 % of WT"},
      {"measurement": "Mean % WT Binding", "setting": "human CD33 variant R122S", "result": "111 % of WT"},
      {"measurement": "Mean % WT Binding", "setting": "human CD33 variant K52D", "result": "101 % of WT"},
      {"measurement": "Mean % WT Binding", "setting": "human CD33 variant K52F", "result": "6 % of WT"}
    ]},
    {"binder": "Refmab #3 (antibody, human IgG1, V domains shown) VH: QVQLVQSGAEVKKPGSSVKVSCKASGYTFTDYNMHWVRQAPGQGLEWIGYIYPYNGGTGYNQKFKSKATITADESTNTAYMELSSLRSEDTAVYYCARGRPAMDYWGQGTLVTVSS VL: DIQMTQSPSSLSASVGDRVTITCRASESVDNYGISFMNWFQQKPGKAPKLLIYAASNQGSGVPSRFSGSGSGTDFTLTISSLQPDDFATYYCQQSKEVPWTFGQGTKVEIK", "values": [
      {"measurement": "binding result", "setting": "human CD33 W22R", "result": "no binding (tested: below 20%)"},
      {"measurement": "binding result", "setting": "human CD33 W22E", "result": "no binding (tested: below 20%)"},
      {"measurement": "binding result", "setting": "human CD33 W22T", "result": "no binding (tested: below 20%)"},
      {"measurement": "binding result", "setting": "human CD33 W22P", "result": "no binding (tested: below 20%)"}
    ]},
    {"binder": "Refmab #6 (antibody, human IgG1, V domains shown) VH: QVQLQQPGAEVVKPGASVKMSCKASGYTFTSYYIHWIKQTPGQGLEWVGVIYPGNDDISYNQKFQGKATLTADKSSTTAYMQLSSLTSEDSAVYYCAREVRLRYFDVWGQGTTVTVSS VL: EIVLTQSPGSLAVSPGERVTMSCKSSQSVFFSSSQKNYLAWYQQIPGQSPRLLIYWASTRESGVPDRFTGSGSGTDFTLTISSVQPEDLAIYYCHQYLSSRTFGQGTKLEIK", "values": [
      {"measurement": "binding result", "setting": "human CD33 W22R", "result": "no binding (tested: below 20%)"},
      {"measurement": "binding result", "setting": "human CD33 W22E", "result": "no binding (tested: below 20%)"},
      {"measurement": "binding result", "setting": "human CD33 W22T", "result": "no binding (tested: below 20%)"},
      {"measurement": "binding result", "setting": "human CD33 W22P", "result": "no binding (tested: below 20%)"}
    ]},
    {"binder": "Refmab #1 (antibody, human IgG1, V domains shown, also called hP67.6; Absolute Antibody Cat. No. Ab00283-10.0) VH: EVQLVQSGAEVKKPGSSVKVSCKASGYTITDSNIHWVRQAPGQSLEWIGYIYPYNGGTDYNQKFKNRATLTVDNPTNTAYMELSSLRSEDTAFYYCVNGNPWLAYWGQGTLVTVSS VL: DIQLTQSPSTLSASVGDRVTITCRASESLDNYGIRFLTWFQQKPGKAPKLLMYAASNQGSGVPSRFSGSGSGTEFTLTISSLQPDDFATYYCQQTKEVPWSFGQGTKVEVK", "values": [
      {"measurement": "binding result", "setting": "human CD33 W22R", "result": "no binding (tested: below 20%)"},
      {"measurement": "binding result", "setting": "human CD33 W22E", "result": "no binding (tested: below 20%)"},
      {"measurement": "binding result", "setting": "human CD33 W22T", "result": "no binding (tested: below 20%)"},
      {"measurement": "binding result", "setting": "human CD33 W22P", "result": "no binding (tested: below 20%)"}
    ]}
  ]
}
